Assay results published in patent US5422104.

What was measured:
[1] = molecular target: recombinant human p75-TNF-R-human IgGγ3 fusion protein (human) (UniProt P20333); experiment: calculated from FIG. 7: competition with 125I-TNFα on plates coated with receptor-IgGγ3 fusions; reference: the same mutein on p55-TNF-R-IgGγ3
[2] = molecular target: human p55-Tumor-Necrosis-Factor-Receptor on Hep-2 cells (human) (UniProt P19438)
[3] = molecular target: human p75-Tumor-Necrosis-Factor-Receptor on U937 cells (human) (UniProt P20333); experiment: competition assay on U937 cells
[4] = molecular target: human p75-Tumor-Necrosis-Factor-Receptor on U937 cells (human) (UniProt P20333); experiment: competition analysis on U937 cells
[5] = molecular target: native human p75-TNF-R purified from HL60 cells (human) (UniProt P20333); experiment: competition with 125I-TNFα for p75-TNF-R
[6] = molecular target: human p75-Tumor-Necrosis-Factor-Receptor on U937 cells (human) (UniProt P20333); experiment: competition analysis, U937 cells against Hep-2 cells
[7] = molecular target: human p75-Tumor-Necrosis-Factor-Receptor on U937 cells (human) (UniProt P20333); experiment: 125I-TNF-α competition, U937 cells, exp 1, mutant 1 × 10^-6 mol
[8] = molecular target: human p75-Tumor-Necrosis-Factor-Receptor on U937 cells (human) (UniProt P20333); experiment: 125I-TNF-α competition, U937 cells, exp 1, mutant 1 × 10^-9 mol
[9] = molecular target: human p75-Tumor-Necrosis-Factor-Receptor on U937 cells (human) (UniProt P20333); experiment: 125I-TNF-α competition, U937 cells, exp 1, mutant 2 × 10^-6 mol
[10] = molecular target: human p75-Tumor-Necrosis-Factor-Receptor on U937 cells (human) (UniProt P20333); experiment: 125I-TNF-α competition, U937 cells, exp 1, mutant 5 × 10^-7 mol
[11] = molecular target: human p75-Tumor-Necrosis-Factor-Receptor on U937 cells (human) (UniProt P20333); experiment: 125I-TNF-α competition, U937 cells, exp 1, mutant […] 10^-7 mol
[12] = molecular target: human p75-Tumor-Necrosis-Factor-Receptor on U937 cells (human) (UniProt P20333); experiment: 125I-TNF-α competition, U937 cells, exp 1, mutant […] 10^-8 mol
[13] = molecular target: human p75-Tumor-Necrosis-Factor-Receptor on U937 cells (human) (UniProt P20333); experiment: 125I-TNF-α competition, U937 cells, exp 2, mutant 1 × 10^-6 mol
[14] = molecular target: human p75-Tumor-Necrosis-Factor-Receptor on U937 cells (human) (UniProt P20333); experiment: 125I-TNF-α competition, U937 cells, exp 2, mutant 2 × 10^-6 mol
[15] = molecular target: human p75-Tumor-Necrosis-Factor-Receptor on U937 cells (human) (UniProt P20333); experiment: 125I-TNF-α competition, U937 cells, exp 2, mutant 3 × 10^-8 mol
[16] = molecular target: human p75-Tumor-Necrosis-Factor-Receptor on U937 cells (human) (UniProt P20333); experiment: 125I-TNF-α competition, U937 cells, exp 2, mutant 4 × 10^-9 mol
[17] = molecular target: human p75-Tumor-Necrosis-Factor-Receptor on U937 cells (human) (UniProt P20333); experiment: 125I-TNF-α competition, U937 cells, exp 2, mutant 5 × 10^-7 mol
[18] = molecular target: human p75-Tumor-Necrosis-Factor-Receptor on U937 cells (human) (UniProt P20333); experiment: 125I-TNF-α competition, U937 cells, exp 2, mutant 6 × 10^-8 mol
[19] = molecular target: human p75-Tumor-Necrosis-Factor-Receptor on U937 cells (human) (UniProt P20333); experiment: 125I-TNF-α competition, U937 cells, exp 2, mutant 8 × 10^-9 mol
[20] = molecular target: human p75-Tumor-Necrosis-Factor-Receptor on U937 cells (human) (UniProt P20333); experiment: 125I-TNF-α competition, U937 cells, exp 2, mutant […] 10^-7 mol
[21] = molecular target: human p75-Tumor-Necrosis-Factor-Receptor on U937 cells (human) (UniProt P20333); experiment: 125I-TNF-α competition, U937 cells, exp 1, mutant 2 × 10^-9 mol
[22] = molecular target: human p75-Tumor-Necrosis-Factor-Receptor on U937 cells (human) (UniProt P20333); experiment: 125I-TNF-α competition, U937 cells, exp 1, mutant 4 × 10^-9 mol
[23] = molecular target: human p75-Tumor-Necrosis-Factor-Receptor on U937 cells (human) (UniProt P20333); experiment: 125I-TNF-α competition, U937 cells, exp 1, mutant 8 × 10^-9 mol
[24] = molecular target: human p75-Tumor-Necrosis-Factor-Receptor on U937 cells (human) (UniProt P20333); experiment: 125I-TNF-α competition, U937 cells, exp 1, mutant 3.2 × 10^-8 mol
[25] = molecular target: human p75-Tumor-Necrosis-Factor-Receptor on U937 cells (human) (UniProt P20333); experiment: 125I-TNF-α competition, U937 cells, exp 1, mutant 6.4 × 10^-8 mol
[26] = molecular target: human p75-Tumor-Necrosis-Factor-Receptor on U937 cells (human) (UniProt P20333); experiment: 125I-TNF-α competition, U937 cells, exp 2, mutant 1.2 × 10^-7 mol
[27] = molecular target: human p75-Tumor-Necrosis-Factor-Receptor on U937 cells (human) (UniProt P20333); experiment: 125I-TNF-α competition, U937 cells, exp 2, mutant 1.5 × 10^-8 mol
[28] = molecular target: human p75-Tumor-Necrosis-Factor-Receptor on U937 cells (human) (UniProt P20333); experiment: 125I-TNF-α competition, U937 cells, exp 1, mutant 1.25 × 10^-7 mol
[29] = molecular target: native human p75-TNF-R purified from HL60 cells (human) (UniProt P20333); experiment: competition with 125I-TNFα for p75-TNF-R, calculated from FIG. 1 (and FIG. 7)
[30] = molecular target: native human p75-TNF-R purified from HL60 cells (human) (UniProt P20333); experiment: from the IC50 values of Table F, competition with 125I-TNFα; reference: the same mutein on p55-TNF-R
[31] = molecular target: human p75-Tumor-Necrosis-Factor-Receptor on U937 cells (human) (UniProt P20333); experiment: 125I-TNF-α competition, U937 cells, exp 1, mutant 3 × 10^-8 mol
[32] = molecular target: human p75-Tumor-Necrosis-Factor-Receptor on U937 cells (human) (UniProt P20333); experiment: 125I-TNF-α competition, U937 cells, exp 1, mutant 6 × 10^-8 mol
[33] = molecular target: human p75-Tumor-Necrosis-Factor-Receptor on U937 cells (human) (UniProt P20333); experiment: 125I-TNF-α competition, U937 cells, exp 1, mutant 1.5 × 10^-8 mol
[34] = molecular target: human p75-Tumor-Necrosis-Factor-Receptor on U937 cells (human) (UniProt P20333); experiment: 125I-TNF-α competition, U937 cells, exp 2, mutant 1.10^-6 as printed
[35] = molecular target: human p75-Tumor-Necrosis-Factor-Receptor on U937 cells (human) (UniProt P20333); experiment: 125I-TNF-α competition, U937 cells, exp 2, mutant 4 × 10^9 as printed
[36] = molecular target: human p75-Tumor-Necrosis-Factor-Receptor on U937 cells (human) (UniProt P20333); experiment: 125I-TNF-α (batch 2) competition, U937 cells, exp 3, mutant 1 × 10^-6 mol
[37] = molecular target: human p75-Tumor-Necrosis-Factor-Receptor on U937 cells (human) (UniProt P20333); experiment: 125I-TNF-α (batch 2) competition, U937 cells, exp 3, mutant 2 × 10^-6 mol
[38] = molecular target: human p75-Tumor-Necrosis-Factor-Receptor on U937 cells (human) (UniProt P20333); experiment: 125I-TNF-α (batch 2) competition, U937 cells, exp 3, mutant 3 × 10^-8 mol
[39] = molecular target: human p75-Tumor-Necrosis-Factor-Receptor on U937 cells (human) (UniProt P20333); experiment: 125I-TNF-α (batch 2) competition, U937 cells, exp 3, mutant 4 × 10^-9 mol
[40] = molecular target: human p75-Tumor-Necrosis-Factor-Receptor on U937 cells (human) (UniProt P20333); experiment: 125I-TNF-α (batch 2) competition, U937 cells, exp 3, mutant 5 × 10^-7 mol
[41] = molecular target: human p75-Tumor-Necrosis-Factor-Receptor on U937 cells (human) (UniProt P20333); experiment: 125I-TNF-α (batch 2) competition, U937 cells, exp 3, mutant 6 × 10^-8 mol
[42] = molecular target: human p75-Tumor-Necrosis-Factor-Receptor on U937 cells (human) (UniProt P20333); experiment: 125I-TNF-α (batch 2) competition, U937 cells, exp 3, mutant 8 × 10^-9 mol
[43] = molecular target: human p75-Tumor-Necrosis-Factor-Receptor on U937 cells (human) (UniProt P20333); experiment: 125I-TNF-α (batch 2) competition, U937 cells, exp 3, mutant […] 10^-7 mol
[44] = molecular target: human p75-Tumor-Necrosis-Factor-Receptor on U937 cells (human) (UniProt P20333); experiment: 125I-TNF-α (batch 2) competition, U937 cells, exp 3, mutant 1.5 × 10^-8 mol
[45] = molecular target: human p75-Tumor-Necrosis-Factor-Receptor on U937 cells (human) (UniProt P20333); experiment: 125I-TNF-α (batch 2) competition, U937 cells, exp 3, mutant 1.25 × 10^-7 mol

Chain of UniProt P19438 (P19438 30-455): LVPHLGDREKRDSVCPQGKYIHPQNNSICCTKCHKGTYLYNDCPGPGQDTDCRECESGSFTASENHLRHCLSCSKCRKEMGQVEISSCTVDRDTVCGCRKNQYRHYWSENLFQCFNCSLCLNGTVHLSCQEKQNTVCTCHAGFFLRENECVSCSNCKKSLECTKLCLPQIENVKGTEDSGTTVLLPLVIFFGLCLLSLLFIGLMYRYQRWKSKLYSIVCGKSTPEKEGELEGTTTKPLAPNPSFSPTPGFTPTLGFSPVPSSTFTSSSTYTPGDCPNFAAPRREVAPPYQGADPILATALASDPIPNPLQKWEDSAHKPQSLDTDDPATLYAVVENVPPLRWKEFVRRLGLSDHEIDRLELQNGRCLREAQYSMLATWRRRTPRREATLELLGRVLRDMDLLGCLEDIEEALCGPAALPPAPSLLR
Chain of UniProt P20333 (P20333 other isoform, or with tags, fused parts or gaps): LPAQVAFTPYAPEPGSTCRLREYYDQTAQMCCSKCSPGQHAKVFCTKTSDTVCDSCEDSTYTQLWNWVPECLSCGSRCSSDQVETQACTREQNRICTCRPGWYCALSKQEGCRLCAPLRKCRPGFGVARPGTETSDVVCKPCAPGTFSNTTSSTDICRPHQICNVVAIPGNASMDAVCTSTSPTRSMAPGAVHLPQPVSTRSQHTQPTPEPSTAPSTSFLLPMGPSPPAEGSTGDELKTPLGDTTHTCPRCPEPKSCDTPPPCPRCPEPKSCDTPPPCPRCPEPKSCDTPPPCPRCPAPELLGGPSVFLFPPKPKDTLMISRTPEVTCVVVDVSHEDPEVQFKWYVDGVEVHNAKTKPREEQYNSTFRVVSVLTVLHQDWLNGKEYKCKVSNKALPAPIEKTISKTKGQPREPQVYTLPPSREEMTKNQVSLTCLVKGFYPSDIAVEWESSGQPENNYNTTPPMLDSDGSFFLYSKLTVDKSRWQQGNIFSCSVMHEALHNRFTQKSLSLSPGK

## Gly^29 -TNFα (ligand)
[1]
  selectivity factor S (IC50 p75-TNF-R against IC50 p55-TNF-R): 80

## Ser^29 -TNFα (ligand)
[2]
  specific activity (U/mg), cytotoxicity assay on Hep-2 cells: 9.3e+06 U/mg
  specific activity on Hep-2 cells, relative value in percentage to TNF-α: 32%
[3]
  increase in KD-value by a factor, against TNF-α: > 100 fold
[4]
  affinity, relative value in percentage to TNF-α: 0.49%
[5]
  Decrease in Affinity (with respect to TNFα): 250
[6]
  fold reduction of binding affinity against its affinity to p55-TNF-R: 50 fold
  percent of its binding affinity to p55-TNF-R: 2%
[7]
  Mean dpm: 632 dpm
[8]
  Mean dpm: 1870 dpm
[9]
  Mean dpm: 533 dpm
[10]
  Mean dpm: 949 dpm
[11]
  Mean dpm: 983 dpm
[12]
  Mean dpm: 1580 dpm
[13]
  Mean dpm: 263 dpm
[14]
  Mean dpm: 238 dpm
[15]
  Mean dpm: 572 dpm
[16]
  Mean dpm: 635 dpm
[17]
  Mean dpm: 319 dpm
[18]
  Mean dpm: 489 dpm
[19]
  Mean dpm: 603 dpm
[20]
  Mean dpm: 380 dpm
[21]
  Mean dpm: 1780 dpm
[22]
  Mean dpm: 1720 dpm
[23]
  Mean dpm: 1710 dpm
[24]
  Mean dpm: 1420 dpm
[25]
  Mean dpm: 1320 dpm
[26]
  Mean dpm: 413 dpm
[27]
  Mean dpm: 641 dpm
[28]
  Mean dpm: 1200 dpm
[29]
  IC50: 2.5 µg/mL
[30]
  selectivity factor S (IC50 p75-TNF-R against IC50 p55-TNF-R): 28

## Ser^29 -Trp^32 -TNFα (ligand)
[1]
  selectivity factor S (IC50 p75-TNF-R against IC50 p55-TNF-R): 450

## Trp^32 -TNFα (ligand)
[2]
  specific activity (U/mg), cytotoxicity assay on Hep-2 cells: 4.5e+07 U/mg
  specific activity on Hep-2 cells, relative value in percentage to TNF-α: 155%
[3]
  increase in KD-value by a factor, against TNF-α: > 100 fold
[4]
  affinity, relative value in percentage to TNF-α: 0.71%
[5]
  Decrease in Affinity (with respect to TNFα): 500
[6]
  fold reduction of binding affinity against its affinity to p55-TNF-R: 33 fold
  percent of its binding affinity to p55-TNF-R: 3%
[7]
  Mean dpm: 777 dpm
[8]
  Mean dpm: 1920 dpm
[9]
  Mean dpm: 628 dpm
[10]
  Mean dpm: 953 dpm
[11]
  Mean dpm: 1030 dpm
[14]
  Mean dpm: 294 dpm
[15]
  Mean dpm: 585 dpm
[17]
  Mean dpm: 422 dpm
[18]
  Mean dpm: 546 dpm
[19]
  Mean dpm: 629 dpm
[20]
  Mean dpm: 479 dpm
[21]
  Mean dpm: 1700 dpm
[31]
  Mean dpm: 1380 dpm
[22]
  Mean dpm: 1660 dpm
[32]
  Mean dpm: 1330 dpm
[23]
  Mean dpm: 1580 dpm
[26]
  Mean dpm: 508 dpm
[27]
  Mean dpm: 636 dpm
[33]
  Mean dpm: 1490 dpm
[28]
  Mean dpm: 1170 dpm
[34]
  Mean dpm: 357 dpm
[35]
  Mean dpm: 653 dpm
[36]
  Mean dpm: 1190 dpm
[37]
  Mean dpm: 814 dpm
[38]
  Mean dpm: 3280 dpm
[39]
  Mean dpm: 4760 dpm
[40]
  Mean dpm: 1470 dpm
[41]
  Mean dpm: 3030 dpm
[42]
  Mean dpm: 4040 dpm
[43]
  Mean dpm: 1980 dpm
[44]
  Mean dpm: 3620 dpm
[45]
  Mean dpm: 2390 dpm
[29]
  IC50: 5 µg/mL
[30]
  selectivity factor S (IC50 p75-TNF-R against IC50 p55-TNF-R): 294

## Tyr^29 -TNFα (ligand)
[1]
  selectivity factor S (IC50 p75-TNF-R against IC50 p55-TNF-R): 110

## Tyr^32 -TNFα (ligand)
[1]
  selectivity factor S (IC50 p75-TNF-R against IC50 p55-TNF-R): 90
